Laboratory results reported in EP4674868A1 (Jiangsu Hengrui Pharmaceuticals Co., Ltd., dated 2026).
Changes are numbered by the printed parent chain. Where two headings read alike, the source gives them in different places.

Columns and labels:
[1] = target: T1, human 4-1BB on the surface of HEK293 cells (HEK293-Hu4-1BB) (human, UniProt Q07011 24-255); assay: FACS, HEK293-Hu4-1BB cells
T1 construct: whole, on cells; also called CD137; cell strain highly expressing human 4-1BB

[2] = target: T1, human 4-1BB on the surface of HEK293 …; assay: FACS, HEK293-Hu4-1BB cells; remark: listed apart in the source
[3] = target: T1, human 4-1BB on the surface of HEK293 …; assay: cell-based or functional assay
[4] = target: T1, human 4-1BB on the surface of HEK293 …; assay: cell-based or functional assay; remark: listed apart in the source
[5] = target: human CD40 on the surface of HEK293 cells (HEK293-HuCD40) (human, UniProt P25942 21-277); assay: cell-based or functional assay
[6] = target: T2, h-FAP-His (recombinant human fibroblast activation protein, Leu26-Asp760, His-tagged) (human, UniProt Q12884 26-760); assay: SPR, antibody captured by anti-human IgG (Fc) on CM5 chip, h-FAP-His as analyte
T2 construct: range 26-760; Bought protein with a His tag; also called human FAP-His protein; His-tagged FAP recombinant protein
T2 sequence (Q12884 26-760 limits assumed): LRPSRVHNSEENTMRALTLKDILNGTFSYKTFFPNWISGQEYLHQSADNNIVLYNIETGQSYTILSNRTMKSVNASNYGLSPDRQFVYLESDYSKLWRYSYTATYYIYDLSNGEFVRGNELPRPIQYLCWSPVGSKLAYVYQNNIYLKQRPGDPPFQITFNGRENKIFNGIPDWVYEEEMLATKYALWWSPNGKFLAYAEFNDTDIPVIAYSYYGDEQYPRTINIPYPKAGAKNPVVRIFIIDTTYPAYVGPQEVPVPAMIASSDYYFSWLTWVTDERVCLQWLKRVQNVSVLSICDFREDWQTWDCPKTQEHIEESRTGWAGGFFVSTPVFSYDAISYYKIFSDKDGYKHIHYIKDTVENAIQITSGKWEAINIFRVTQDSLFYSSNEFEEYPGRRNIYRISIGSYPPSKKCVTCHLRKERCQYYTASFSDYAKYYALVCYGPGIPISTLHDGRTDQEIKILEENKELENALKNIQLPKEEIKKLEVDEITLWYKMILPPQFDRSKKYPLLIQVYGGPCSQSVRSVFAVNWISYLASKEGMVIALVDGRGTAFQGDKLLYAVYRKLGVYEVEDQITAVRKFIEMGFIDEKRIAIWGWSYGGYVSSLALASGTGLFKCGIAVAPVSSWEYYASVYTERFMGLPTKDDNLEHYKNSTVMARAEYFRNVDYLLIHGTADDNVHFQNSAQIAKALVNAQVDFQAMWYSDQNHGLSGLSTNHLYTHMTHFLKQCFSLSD

B1: C5_V2-YTIQ linked to human IgG1-Fc (Fc fusion)
chain: QVQLVESGGGLVQPGGSLRLSCSASGFTFSSYAMSWVRQAPGKGLEWVSDINSGGQSTFYADSVKGRFTISRDNAKNTLYLQMNSLRAEDTAVYYCAKHPLTYTIATMNDYDYWGQGTQVTVSSEPKSADKTHTCPPCPAPELLGGPSVFLFPPKPKDTLMISRTPEVTCVVVDVEHEDPEVKFNWYVDGVEVHNAKTKPREEQYNSTYRVVSVLTVLHQDWLNGKEYKCKVSSKAFPAPIEKTISKAKGQPREPQVYTLPPSRDELTKNQVSLTCLVKGFYPSDIAVEWESNGQPENNYKTTPPVLDSDGSFFLYSKLTVDKSRWQQGNVFSCSVMHEALHNHYTQKSLSLSPGK
- EC50 [1]: 0.7 nM
- Maximum fluorescence value [1]: 51700

B2: humanized anti-4-1BB nanobody C5_V3 linked to human IgG1-Fc (Fc fusion)
chain: B1 chain with Q56E, A61E, R87K, A88P, Y103F, Q119L
- EC50 [2]: 1.65 nM

B3: humanized anti-4-1BB nanobody C5_V1 linked to human IgG1-Fc (Fc fusion)
chain: B1 chain with Q56E, A61E, K98R, Y103F, Q119L
- EC50 [2]: 3.79 nM
- Maximum fluorescence value [2]: 1040
- Activation of HEK293-4-1BB cells (NF-κB reporter), Fold change in Emax [3]: 1.14 fold
- FcγRIIb-mediated activation of HEK293-4-1BB cells (NF-κB reporter), Fold change in Emax [3]: 2.28 fold

B4: MP0310 (FAP/4-1BB bispecific antibody molecule, control) (other)
chain: GSDLGKKLLEAARAGQDDEVRELLKAGADVNAKDYFSHTPLHLAARNGHLKIVEVLLKAGADVNAKDFAGKTPLHLAAADGHLEIVEVLLKAGADVNAQDIFGKTPADIAADAGHEDIAEVLQKAAGSPTPTPTTPTPTPTTPTPTPTGSDLGKKLLEAARAGQDDEVRELLKAGADVNAKDVLGWTPLHLAAFEGHLEIVEVLLKAGADVNAKDKKGWTPLQLAARTGHLEIVEVLLKAGADVNAKDHIGATPLHLAAWQGHPEIVEVLLKAGADVNAQDKSGKTPADLAADAGHEDIAEVLQKAAGSPTPTPTTPTPTPTTPTPTPTGSDLGQKLLKAAQEGQDDEVRELLKAGADVNAKDLRGITPLHVAAWQGHLEIVEVLLKAGADVNAKDSKGETPLHLAAFRGHLEIVEVLLKAGADVNAQDQQGETPADLAALAGHVDIAEVLQKAAGSPTPTPTTPTPTPTTPTPTPTGSDLGQKLLKAAQEGQDDEVRELLKAGADVNAKDLRGITPLHVAAWQGHLEIVEVLLKAGADVNAKDSKGETPLHLAAFRGHLEIVEVLLKAGADVNAQDQQGETPADLAALAGHVDIAEVLQKAAGSPTPTPTTPTPTPTTPTPTPTGSDLGKKLLEAARAGQDDEVRELLKAGADVNAKDYFSHTPLHLAARNGHLKIVEVLLKAGADVNAKDFAGKTPLHLAAADGHLEIVEVLLKAGADVNAQDIFGKTPADIAADAGHEDIAEVLQKAAHHHHHH
- 4-1BB/NF-κB luciferase reporter, CD40-crosslinked, Fold change in Emax [4]: 1.11 fold
- 4-1BB/NF-κB luciferase reporter, FAP-crosslinked, EC50 [4]: 0.02 nM
- 4-1BB/NF-κB luciferase reporter, FAP-crosslinked, Fold change in Emax [4]: 13.8 fold
- 4-1BB/NF-κB luciferase reporter, uncrosslinked, Fold change in Emax [4]: 1.01 fold
- CD40/NF-κB reporter (HEK-Blue CD40L), 4-1BB-crosslinked, Fold change in Emax [5]: 1.01 fold
- CD40/NF-κB reporter (HEK-Blue CD40L), FAP-crosslinked, Fold change in Emax [5]: 0.99 fold
- CD40/NF-κB reporter (HEK-Blue CD40L), uncrosslinked, Fold change in Emax [5]: 1.03 fold

B5: control anti-FAP antibody 28H1 (antibody, V domains shown)
VH: EVQLLESGGGLVQPGGSLRLSCAASGFTFSSHAMSWVRQAPGKGLEWVSAIWASGEQYYADSVKGRFTISRDNSKNTLYLQMNSLRAEDTAVYYCAKGWLGNFDYWGQGTLVTVSS
VL: EIVLTQSPGTLSLSPGERATLSCRASQSVSRSYLAWYQQKPGQAPRLLIIGASTRATGIPDRFSGSGSGTDFTLTISRLEPEDFAVYYCQQGQVIPPTFGQGTKVEIK
- Kd [6]: 1.31 nM
- Ratio of KD of 28H1 to KD of test antibody [6]: 1
- Ratio of Kd of 28H1 to Kd of test antibody [6]: 1
- koff [6]: 0.000255 s⁻¹
- kon [6]: 195000 M⁻¹ s⁻¹
